The results in this text go back to US20250218531A1 (ABSCI, published 2025).

Residue numbers refer to the chain shown, from its start.

The labels stand for the following.
B1: Trastuzumab HCDR3 variant ARYGGGYYYMDY (Fab, V domains shown)
VH: EVQLVESGGGLVQPGGSLRLSCAASGFNIKDTYIHWVRQAPGKGLEWVARIYPTNGYTRYADSVKGRFTISADTSKNTAYLQMNSLRAEDTAVYYCARYGGGYYYMDYWGQGTLVTVSS
VL: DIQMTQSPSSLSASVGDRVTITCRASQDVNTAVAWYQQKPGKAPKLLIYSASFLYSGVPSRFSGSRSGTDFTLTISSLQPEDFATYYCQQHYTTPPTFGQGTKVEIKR
B2: Trastuzumab HCDR3 variant ARWYGYYYYFDV (Fab, V domains shown)
VH: B1 VH with Y99W, G100Y, G102Y, M106F, Y108V
VL: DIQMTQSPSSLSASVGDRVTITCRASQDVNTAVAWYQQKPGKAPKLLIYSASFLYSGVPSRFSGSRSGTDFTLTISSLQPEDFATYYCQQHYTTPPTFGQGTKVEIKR
B3: Trastuzumab HCDR3 variant ALYNYYYYAFGF (Fab, V domains shown)
VH: B1 VH with R98L, G100N, G101Y, G102Y, Y105A, M106F, D107G, Y108F
VL: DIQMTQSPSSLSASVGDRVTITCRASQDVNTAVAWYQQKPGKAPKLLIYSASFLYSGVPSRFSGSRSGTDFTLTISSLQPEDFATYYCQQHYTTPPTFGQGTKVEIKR
B4: Trastuzumab HCDR3 variant ALYGNYSYGFAR (Fab, V domains shown)
VH: B1 VH with R98L, G101N, G102Y, Y103S, Y105G, M106F, D107A, Y108R
VL: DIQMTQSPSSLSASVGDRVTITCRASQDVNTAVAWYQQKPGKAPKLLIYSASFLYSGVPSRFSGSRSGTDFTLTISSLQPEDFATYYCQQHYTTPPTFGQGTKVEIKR
B5: Trastuzumab HCDR3 variant ARWGSGYYYMDY (Fab, V domains shown)
VH: B1 VH with Y99W, G101S
VL: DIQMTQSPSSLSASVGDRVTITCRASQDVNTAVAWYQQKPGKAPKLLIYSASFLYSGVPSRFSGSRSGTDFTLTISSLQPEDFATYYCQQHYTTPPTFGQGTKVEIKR
B6: Trastuzumab HCDR3 variant ARWGGYYYYFDY (Fab, V domains shown)
VH: B1 VH with Y99W, G102Y, M106F
VL: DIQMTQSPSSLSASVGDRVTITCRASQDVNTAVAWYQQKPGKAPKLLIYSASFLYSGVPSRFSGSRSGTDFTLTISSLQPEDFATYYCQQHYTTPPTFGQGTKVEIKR
B7: Trastuzumab HCDR3 variant ARWSYGYYNFDY (Fab, V domains shown)
VH: B1 VH with Y99W, G100S, G101Y, Y105N, M106F
VL: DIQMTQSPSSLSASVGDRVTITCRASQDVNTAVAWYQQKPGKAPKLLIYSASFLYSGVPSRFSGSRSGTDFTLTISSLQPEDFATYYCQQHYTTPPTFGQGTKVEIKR
B8: Trastuzumab HCDR3 variant AKYGSNYYYLGS (Fab, V domains shown)
VH: B1 VH with R98K, G101S, G102N, M106L, D107G, Y108S
VL: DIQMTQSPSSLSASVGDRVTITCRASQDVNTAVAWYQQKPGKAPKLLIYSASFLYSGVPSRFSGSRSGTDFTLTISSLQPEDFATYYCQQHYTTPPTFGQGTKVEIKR
B9: Trastuzumab HCDR3 variant ARWGGYYYYMDY (Fab, V domains shown)
VH: B1 VH with Y99W, G102Y
VL: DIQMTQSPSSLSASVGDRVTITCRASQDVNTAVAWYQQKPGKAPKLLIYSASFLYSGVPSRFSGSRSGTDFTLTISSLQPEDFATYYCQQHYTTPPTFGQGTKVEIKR
B10: Trastuzumab HCDR3 variant AIYSDGAYFYGR (Fab, V domains shown)
VH: B1 VH with R98I, G100S, G101D, Y103A, Y105F, M106Y, D107G, Y108R
VL: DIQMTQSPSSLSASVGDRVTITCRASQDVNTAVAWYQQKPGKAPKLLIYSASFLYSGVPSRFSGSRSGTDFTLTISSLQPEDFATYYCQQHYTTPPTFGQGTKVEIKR
B11: Trastuzumab HCDR3 variant ARYFGGSYAYVY (Fab, V domains shown)
VH: B1 VH with G100F, Y103S, Y105A, M106Y, D107V
VL: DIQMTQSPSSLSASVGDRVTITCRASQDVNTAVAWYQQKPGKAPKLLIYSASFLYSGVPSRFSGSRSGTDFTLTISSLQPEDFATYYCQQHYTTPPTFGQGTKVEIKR
B12: Trastuzumab HCDR3 variant ARYGGGFYAMDY (Fab, V domains shown)
VH: B1 VH with Y103F, Y105A
VL: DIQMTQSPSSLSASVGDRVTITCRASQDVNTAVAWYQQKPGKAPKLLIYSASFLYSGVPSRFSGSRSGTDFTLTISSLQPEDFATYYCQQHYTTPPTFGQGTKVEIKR
B13: Trastuzumab HCDR3 variant ARWQGGYYYWDF (Fab, V domains shown)
VH: B1 VH with Y99W, G100Q, M106W, Y108F
VL: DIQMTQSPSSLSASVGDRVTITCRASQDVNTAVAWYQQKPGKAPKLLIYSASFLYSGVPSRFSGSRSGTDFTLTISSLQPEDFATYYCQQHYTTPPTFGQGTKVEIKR
B14: Trastuzumab HCDR3 variant ARWGGDFYAMDY (Fab, V domains shown)
VH: B1 VH with Y99W, G102D, Y103F, Y105A
VL: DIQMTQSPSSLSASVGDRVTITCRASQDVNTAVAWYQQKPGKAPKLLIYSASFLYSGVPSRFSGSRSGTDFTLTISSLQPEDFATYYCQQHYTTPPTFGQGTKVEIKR
B15: Trastuzumab HCDR3 variant ARWFGGYYHMDY (Fab, V domains shown)
VH: B1 VH with Y99W, G100F, Y105H
VL: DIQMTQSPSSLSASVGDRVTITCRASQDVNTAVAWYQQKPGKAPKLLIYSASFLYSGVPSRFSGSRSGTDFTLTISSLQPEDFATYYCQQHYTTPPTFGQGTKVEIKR
B16: Trastuzumab HCDR3 variant ALWGFGWYYFDY (Fab, V domains shown)
VH: B1 VH with R98L, Y99W, G101F, Y103W, M106F
VL: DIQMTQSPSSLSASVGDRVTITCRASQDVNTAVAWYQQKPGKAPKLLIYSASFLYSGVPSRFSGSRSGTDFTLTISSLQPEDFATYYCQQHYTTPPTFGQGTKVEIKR
B17: Trastuzumab HCDR3 variant ARYGGGYWYFDY (Fab, V domains shown)
VH: B1 VH with Y104W, M106F
VL: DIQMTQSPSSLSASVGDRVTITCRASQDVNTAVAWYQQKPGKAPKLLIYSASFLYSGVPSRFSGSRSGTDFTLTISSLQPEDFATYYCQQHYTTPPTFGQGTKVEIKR
B18: Trastuzumab HCDR3 variant ARWFYDYYYMDY (Fab, V domains shown)
VH: B1 VH with Y99W, G100F, G101Y, G102D
VL: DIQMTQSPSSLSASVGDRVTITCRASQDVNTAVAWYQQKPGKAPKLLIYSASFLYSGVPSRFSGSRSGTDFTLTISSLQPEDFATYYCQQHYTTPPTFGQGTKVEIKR
B19: Trastuzumab HCDR3 variant ARWGYGYYYFDY (Fab, V domains shown)
VH: B1 VH with Y99W, G101Y, M106F
VL: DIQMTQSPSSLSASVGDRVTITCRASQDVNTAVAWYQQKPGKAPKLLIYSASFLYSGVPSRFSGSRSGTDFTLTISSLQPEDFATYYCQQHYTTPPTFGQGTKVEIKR
B20: Trastuzumab HCDR3 variant ARWGDGYYYMDY (Fab, V domains shown)
VH: B1 VH with Y99W, G101D
VL: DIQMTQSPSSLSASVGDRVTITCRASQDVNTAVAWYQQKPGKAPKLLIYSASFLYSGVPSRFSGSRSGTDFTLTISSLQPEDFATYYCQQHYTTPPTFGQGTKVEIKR
B21: Trastuzumab HCDR3 variant ARYGGGYYYYDY (Fab, V domains shown)
VH: B1 VH with M106Y
VL: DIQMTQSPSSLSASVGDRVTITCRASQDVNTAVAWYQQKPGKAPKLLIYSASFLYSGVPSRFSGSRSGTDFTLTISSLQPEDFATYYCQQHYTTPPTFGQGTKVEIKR
B22: Trastuzumab HCDR3 variant ARWLAYWYAMDY (Fab, V domains shown)
VH: B1 VH with Y99W, G100L, G101A, G102Y, Y103W, Y105A
VL: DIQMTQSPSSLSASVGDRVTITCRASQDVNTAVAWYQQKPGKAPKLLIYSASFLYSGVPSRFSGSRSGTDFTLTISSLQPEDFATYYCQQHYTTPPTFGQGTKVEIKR
B23: Trastuzumab HCDR3 variant ARYGAYFYAMDA (Fab, V domains shown)
VH: B1 VH with G101A, G102Y, Y103F, Y105A, Y108A
VL: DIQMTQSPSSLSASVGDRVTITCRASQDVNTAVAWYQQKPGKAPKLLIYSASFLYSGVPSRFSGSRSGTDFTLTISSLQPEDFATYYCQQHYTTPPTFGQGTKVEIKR
B24: Trastuzumab HCDR3 variant AAYTNTFYYLVY (Fab, V domains shown)
VH: B1 VH with R98A, G100T, G101N, G102T, Y103F, M106L, D107V
VL: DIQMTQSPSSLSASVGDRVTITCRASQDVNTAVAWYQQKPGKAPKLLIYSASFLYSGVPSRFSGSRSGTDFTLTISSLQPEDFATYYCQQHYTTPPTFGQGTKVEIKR
B25: Trastuzumab HCDR3 variant ARWGYDYYYFAY (Fab, V domains shown)
VH: B1 VH with Y99W, G101Y, G102D, M106F, D107A
VL: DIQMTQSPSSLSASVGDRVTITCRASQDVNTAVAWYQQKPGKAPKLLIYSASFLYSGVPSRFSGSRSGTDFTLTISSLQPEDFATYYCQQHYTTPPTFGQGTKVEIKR
B26: Trastuzumab HCDR3 variant ARWYGGYYMYDY (Fab, V domains shown)
VH: B1 VH with Y99W, G100Y, Y105M, M106Y
VL: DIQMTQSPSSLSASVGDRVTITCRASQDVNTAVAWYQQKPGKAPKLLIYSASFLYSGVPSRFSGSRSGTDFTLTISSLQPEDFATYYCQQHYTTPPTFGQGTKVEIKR
B27: Trastuzumab HCDR3 variant ARWGYYYYAMDY (Fab, V domains shown)
VH: B1 VH with Y99W, G101Y, G102Y, Y105A
VL: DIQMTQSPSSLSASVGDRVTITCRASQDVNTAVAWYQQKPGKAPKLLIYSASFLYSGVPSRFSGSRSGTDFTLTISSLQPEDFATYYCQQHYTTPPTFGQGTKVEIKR
B28: Trastuzumab HCDR3 variant ARWGFSMYSFDY (Fab, V domains shown)
VH: B1 VH with Y99W, G101F, G102S, Y103M, Y105S, M106F
VL: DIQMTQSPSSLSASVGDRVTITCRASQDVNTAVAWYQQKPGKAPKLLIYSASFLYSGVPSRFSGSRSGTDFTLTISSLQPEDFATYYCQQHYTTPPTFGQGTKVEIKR
B29: Trastuzumab HCDR3 variant ARWAGDYYVMDY (Fab, V domains shown)
VH: B1 VH with Y99W, G100A, G102D, Y105V
VL: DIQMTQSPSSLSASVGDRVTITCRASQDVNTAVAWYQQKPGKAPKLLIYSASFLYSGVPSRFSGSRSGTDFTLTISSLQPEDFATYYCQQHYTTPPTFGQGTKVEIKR
B30: Trastuzumab HCDR3 variant ARFGSYYYYFDY (Fab, V domains shown)
VH: B1 VH with Y99F, G101S, G102Y, M106F
VL: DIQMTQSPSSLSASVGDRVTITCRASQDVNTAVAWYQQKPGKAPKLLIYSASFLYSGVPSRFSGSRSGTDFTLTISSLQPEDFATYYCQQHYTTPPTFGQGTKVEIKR
B31: Trastuzumab HCDR3 variant ARWGDYYYYMDY (Fab, V domains shown)
VH: B1 VH with Y99W, G101D, G102Y
VL: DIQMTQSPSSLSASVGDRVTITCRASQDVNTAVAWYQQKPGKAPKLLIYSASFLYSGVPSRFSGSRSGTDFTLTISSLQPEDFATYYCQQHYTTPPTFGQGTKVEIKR
B32: Trastuzumab HCDR3 variant ARWGGYYYYFDV (Fab, V domains shown)
VH: B1 VH with Y99W, G102Y, M106F, Y108V
VL: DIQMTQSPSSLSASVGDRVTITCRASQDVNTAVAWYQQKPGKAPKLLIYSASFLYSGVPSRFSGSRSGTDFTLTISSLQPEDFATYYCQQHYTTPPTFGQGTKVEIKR
B33: Trastuzumab HCDR3 variant AKYGDDNYGFSH (Fab, V domains shown)
VH: B1 VH with R98K, G101D, G102D, Y103N, Y105G, M106F, D107S, Y108H
VL: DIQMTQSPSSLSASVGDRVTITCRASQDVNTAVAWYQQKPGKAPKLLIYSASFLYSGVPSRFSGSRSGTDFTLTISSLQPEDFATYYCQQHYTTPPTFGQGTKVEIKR
B34: Trastuzumab HCDR3 variant ARFGNSGYQFDY (Fab, V domains shown)
VH: B1 VH with Y99F, G101N, G102S, Y103G, Y105Q, M106F
VL: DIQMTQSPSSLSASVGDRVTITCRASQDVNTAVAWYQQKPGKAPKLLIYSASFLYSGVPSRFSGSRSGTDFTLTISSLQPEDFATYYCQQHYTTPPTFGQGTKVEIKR
B35: Trastuzumab HCDR3 variant ARWYYDYYYMDY (Fab, V domains shown)
VH: B1 VH with Y99W, G100Y, G101Y, G102D
VL: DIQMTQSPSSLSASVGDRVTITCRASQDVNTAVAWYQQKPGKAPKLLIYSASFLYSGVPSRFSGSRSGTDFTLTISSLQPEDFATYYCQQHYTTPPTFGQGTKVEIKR
B36: Trastuzumab HCDR3 variant ARYDIGYYDMDK (Fab, V domains shown)
VH: B1 VH with G100D, G101I, Y105D, Y108K
VL: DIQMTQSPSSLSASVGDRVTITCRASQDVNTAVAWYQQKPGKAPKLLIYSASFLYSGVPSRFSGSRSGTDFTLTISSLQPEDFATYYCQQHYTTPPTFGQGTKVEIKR
B37: Trastuzumab HCDR3 variant ARFGGYYYYFDY (Fab, V domains shown)
VH: B1 VH with Y99F, G102Y, M106F
VL: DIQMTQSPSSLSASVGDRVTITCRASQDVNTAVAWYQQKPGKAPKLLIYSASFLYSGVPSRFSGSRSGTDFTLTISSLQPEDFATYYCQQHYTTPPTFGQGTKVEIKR
B38: Trastuzumab HCDR3 variant ARWGYYYYYMDY (Fab, V domains shown)
VH: B1 VH with Y99W, G101Y, G102Y
VL: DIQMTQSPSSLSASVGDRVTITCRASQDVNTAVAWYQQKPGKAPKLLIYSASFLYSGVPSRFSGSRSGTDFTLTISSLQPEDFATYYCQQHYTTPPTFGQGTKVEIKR
B39: Trastuzumab HCDR3 variant ARYDYGYYIYVS (Fab, V domains shown)
VH: B1 VH with G100D, G101Y, Y105I, M106Y, D107V, Y108S
VL: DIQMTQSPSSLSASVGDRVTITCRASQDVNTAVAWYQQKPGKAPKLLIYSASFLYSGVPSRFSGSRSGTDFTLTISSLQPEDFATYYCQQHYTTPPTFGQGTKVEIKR
B40: Trastuzumab HCDR3 variant ARWYGGYYHHDY (Fab, V domains shown)
VH: B1 VH with Y99W, G100Y, Y105H, M106H
VL: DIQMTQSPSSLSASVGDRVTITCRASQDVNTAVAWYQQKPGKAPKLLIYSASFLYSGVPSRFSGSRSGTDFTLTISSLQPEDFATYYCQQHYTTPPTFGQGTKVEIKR
B41: Trastuzumab HCDR3 variant ARWGNYYYYMDY (Fab, V domains shown)
VH: B1 VH with Y99W, G101N, G102Y
VL: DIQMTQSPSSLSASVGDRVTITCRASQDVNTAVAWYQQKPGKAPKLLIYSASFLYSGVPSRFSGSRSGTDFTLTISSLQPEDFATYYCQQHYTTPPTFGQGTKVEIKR
B42: Trastuzumab HCDR3 variant ARWPGGYYHMDY (Fab, V domains shown)
VH: B1 VH with Y99W, G100P, Y105H
VL: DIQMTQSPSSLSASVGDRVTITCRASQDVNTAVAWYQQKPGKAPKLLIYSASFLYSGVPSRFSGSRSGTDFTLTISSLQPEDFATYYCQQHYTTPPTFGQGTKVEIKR
B43: Trastuzumab HCDR3 variant ARYGGFYYYFDY (Fab, V domains shown)
VH: B1 VH with G102F, M106F
VL: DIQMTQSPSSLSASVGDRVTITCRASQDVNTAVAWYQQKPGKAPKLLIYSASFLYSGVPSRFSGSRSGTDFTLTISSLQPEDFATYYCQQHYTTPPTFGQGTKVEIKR
B44: Trastuzumab HCDR3 variant ARWSSGYYYMDY (Fab, V domains shown)
VH: B1 VH with Y99W, G100S, G101S
VL: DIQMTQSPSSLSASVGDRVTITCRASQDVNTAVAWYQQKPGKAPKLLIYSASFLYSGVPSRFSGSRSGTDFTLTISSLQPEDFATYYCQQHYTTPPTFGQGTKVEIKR
B45: Trastuzumab HCDR3 variant AKYSFGGYYYGD (Fab, V domains shown)
VH: B1 VH with R98K, G100S, G101F, Y103G, M106Y, D107G, Y108D
VL: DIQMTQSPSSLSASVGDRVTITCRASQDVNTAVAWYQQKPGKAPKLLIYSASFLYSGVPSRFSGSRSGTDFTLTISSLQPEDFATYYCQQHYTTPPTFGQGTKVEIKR
B46: Trastuzumab HCDR3 variant ARWYGAYYHMDY (Fab, V domains shown)
VH: B1 VH with Y99W, G100Y, G102A, Y105H
VL: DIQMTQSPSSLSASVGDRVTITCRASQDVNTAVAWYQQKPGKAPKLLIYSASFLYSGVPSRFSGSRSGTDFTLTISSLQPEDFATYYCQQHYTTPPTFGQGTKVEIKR
B47: Trastuzumab HCDR3 variant ARWGGNYYYMDY (Fab, V domains shown)
VH: B1 VH with Y99W, G102N
VL: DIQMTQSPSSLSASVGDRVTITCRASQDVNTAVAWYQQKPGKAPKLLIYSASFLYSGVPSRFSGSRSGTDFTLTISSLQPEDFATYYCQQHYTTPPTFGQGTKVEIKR

For the assay, the target named is T1, HER2 (human epidermal growth factor receptor 2) (human, UniProt P04626 23-629).
T1 construct: also called Antigen: HER2
As to the kind of experiment: SPR.
In the case of B1, the Kd was found to be 13.3 nM and the “log(KD (M))” value is -7.88.

On to B2, for which the Kd came out at 11.2 nM and the “log(KD (M))” value is -7.95.

On to B3, for which the Kd amounted to 20.6 nM and the “log(KD (M))” value is -7.69.

As for B4, the Kd came out at 12.6 nM and the “log(KD (M))” value was -7.9.

As to B5, the Kd stood at 4.46 nM and the “log(KD (M))” value was -8.35.

For B6, the equilibrium dissociation constant (Kd) turned out to be 12.8 nM and the “log(KD (M))” value was -7.89.

On to B7, for which the Kd worked out at 1.98 nM and the “log(KD (M))” value was -8.7.

For B8, the Kd was determined as 18.7 nM and the “log(KD (M))” value was -7.73.

Turning to B9, the dissociation constant (Kd) worked out at 3.62 nM and the “log(KD (M))” value was -8.44.

In the case of B10, binding was characterised by a dissociation constant (Kd) of 10.6 nM and the “log(KD (M))” value was -7.98.

In the case of B11, the affinity, expressed as Kd, was 11.2 nM and the “log(KD (M))” value is -7.95.

Turning to B12, binding was put at a Kd of 22.4 nM and the “log(KD (M))” value is -7.65.

Regarding B13, the Kd was determined as 13.8 nM and the “log(KD (M))” value is -7.86.

As to B14, binding was put at a Kd of 9.49 nM and the “log(KD (M))” value was -8.02.

In the case of B15, the Kd is 8.52 nM and the “log(KD (M))” value was -8.07.

As to B16, binding was characterised by a dissociation constant (Kd) of 5.31 nM and the “log(KD (M))” value is -8.28.

Consider B17, for which the Kd stood at 23.4 nM and the “log(KD (M))” value is -7.63.

Consider B18, for which the Kd was 12.6 nM and the “log(KD (M))” value is -7.9.

B19: the Kd came to 25.2 nM and the “log(KD (M))” value was -7.6.

As to B20, the Kd turned out to be 5.57 nM and the “log(KD (M))” value is -8.25.

B21: binding was characterised by a dissociation constant (Kd) of 9.11 nM and the “log(KD (M))” value is -8.04.

Regarding B22, the affinity, expressed as Kd, was 3.55 nM and the “log(KD (M))” value was -8.45.

Turning to B23, the affinity, expressed as Kd, was 18.6 nM and the “log(KD (M))” value is -7.73.

B24: binding was put at a Kd of 19.8 nM and the “log(KD (M))” value was -7.7.

On to B25, for which the Kd was determined as 26.5 nM and the “log(KD (M))” value is -7.58.

For B26, the dissociation constant Kd amounted to 19.1 nM and the “log(KD (M))” value was -7.72.

As for B27, the Kd stood at 22.6 nM and the “log(KD (M))” value is -7.65.

Regarding B28, the Kd is 7.5 nM and the “log(KD (M))” value is -8.12.

Consider B29, for which binding was put at a Kd of 7.68 nM and the “log(KD (M))” value was -8.11.

Regarding B30, binding was put at a Kd of 13 nM and the “log(KD (M))” value is -7.89.

As for B31, the Kd worked out at 2.36 nM and the “log(KD (M))” value is -8.63.

With B32, binding was put at a Kd of 13 nM and the “log(KD (M))” value was -7.89.

As for B33, binding was characterised by a dissociation constant (Kd) of 15.4 nM and the “log(KD (M))” value was -7.81.

Regarding B34, the Kd stood at 10.5 nM and the “log(KD (M))” value was -7.98.

Turning to B35, binding was put at a Kd of 13.9 nM and the “log(KD (M))” value is -7.86.

Take B36: the Kd came to 27 nM and the “log(KD (M))” value is -7.57.

In the case of B37, binding was put at a Kd of 23.5 nM and the “log(KD (M))” value was -7.63.

Consider B38, for which the Kd is 2.28 nM and the “log(KD (M))” value is -8.64.

As to B39, the Kd was 9.49 nM and the “log(KD (M))” value is -8.02.

In the case of B40, the Kd amounted to 8.57 nM and the “log(KD (M))” value is -8.07.

Turning to B41, the affinity, expressed as Kd, was 1.69 nM and the “log(KD (M))” value was -8.77.

As to B42, the Kd is 8.49 nM and the “log(KD (M))” value was -8.07.

As for B43, the Kd was determined as 6.17 nM and the “log(KD (M))” value was -8.21.

Take B44: binding was characterised by a dissociation constant (Kd) of 12 nM and the “log(KD (M))” value is -7.92.

Regarding B45, the dissociation constant (Kd) came out at 19.1 nM and the “log(KD (M))” value was -7.72.

Turning to B46, binding was characterised by a dissociation constant (Kd) of 5.59 nM and the “log(KD (M))” value was -8.25.

For B47, the affinity, expressed as Kd, was 4.22 nM and the “log(KD (M))” value is -8.37.
